Changes are numbered by the printed parent chain.
What was measured:
Test in all cases: AlphaScreen or HTRF; saturation binding: HEK293 cells transfected with SNAP-tagged receptor (WT or mutant) and labelled with SNAP-Lumi4-Tb, incubated with increasing concentrations of galanin-A2 in the presence or absence of 100 uM unlabeled galanin, 1 h at room temperature; HTRF ratio 665 nm/620 nm
Details in all cases: one partner purified
SNAP-GAL2R R184^5.35A = target: T1, SNAP-GAL2R R184^5.35A (human, UniProt O43603 1-387, R184^5.35A, Lumi4-Tb on the SNAP tag)
T1 construct: also called R184A; source: HEK293, transfected, on cells; not shown: SNAP tag, N-terminal, kept
T1 sequence (looked up): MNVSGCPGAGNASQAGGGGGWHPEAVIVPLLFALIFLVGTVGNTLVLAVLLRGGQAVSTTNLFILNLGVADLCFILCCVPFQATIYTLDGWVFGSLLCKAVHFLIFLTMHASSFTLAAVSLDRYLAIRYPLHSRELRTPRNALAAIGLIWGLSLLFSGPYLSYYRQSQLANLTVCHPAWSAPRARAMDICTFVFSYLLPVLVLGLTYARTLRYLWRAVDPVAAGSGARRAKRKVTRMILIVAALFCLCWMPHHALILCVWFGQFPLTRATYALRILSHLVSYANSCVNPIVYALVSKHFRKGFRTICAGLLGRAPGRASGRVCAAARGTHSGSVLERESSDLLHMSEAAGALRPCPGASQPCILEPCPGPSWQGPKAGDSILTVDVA

SNAP-GAL2R T267^7.28A = target: T2, SNAP-GAL2R T267^7.28A (human, UniProt O43603 1-387, T267^7.28A, Lumi4-Tb on the SNAP tag)
T2 construct: also called T267A; source: HEK293, transfected, on cells; not shown: SNAP tag, N-terminal, kept
T2 sequence (looked up): T1 sequence (looked up) with A184R, T267A

SNAP-GAL2R H252^6.51A = target: T3, SNAP-GAL2R H252^6.51A (human, UniProt O43603 1-387, H252^6.51A, Lumi4-Tb on the SNAP tag)
T3 construct: also called H252A; source: HEK293, transfected, on cells; not shown: SNAP tag, N-terminal, kept
T3 sequence (looked up): T1 sequence (looked up) with A184R, H252A

SNAP-GAL2R L169^ECL2A = target: T4, SNAP-GAL2R L169^ECL2A (human, UniProt O43603 1-387, L169^ECL2A, Lumi4-Tb on the SNAP tag)
T4 construct: also called L169A; source: HEK293, transfected, on cells; not shown: SNAP tag, N-terminal, kept
T4 sequence (looked up): T1 sequence (looked up) with L169A, A184R

B1: galanin-A2 (full-length galanin labeled with the dye A2 on an additional cysteine at the C-terminal end) (peptide)
peptide: GWTLNSAGYLLGPHAVGNHRSFSDKNGLTSC
modifications: dye A2 on the additional C-terminal cysteine
notes: numbers count on: the mature protein; additional cysteine at the C-terminal end of the peptide, carries the dye A2; source: synthetic peptide (synthesized by Vazyme, China)
B1 gave a Kd (SNAP-GAL2R R184^5.35A) of 286 nM, a Kd (SNAP-GAL2R T267^7.28A) of 229 nM and a Kd (SNAP-GAL2R H252^6.51A) of 246 nM. It also gave a Kd (SNAP-GAL2R L169^ECL2A) of 86.2 nM.

— article PMC8924211 (Nature Communications, 2022)
